Where a chain is given by its changes, count along the chain named.

Assay in all cases: ELISA, plate coated with 10 ug/ml target protein, 2 ug/ml nanobody, anti-VHH-HRP, A450
Experiment [1] deals with T1, Helicoverpa armigera trehalase (Helicoverpa armigera).
T1 construct: the tag is not part of the printed entry; also called TRH; target TRH antigen
T1 chain: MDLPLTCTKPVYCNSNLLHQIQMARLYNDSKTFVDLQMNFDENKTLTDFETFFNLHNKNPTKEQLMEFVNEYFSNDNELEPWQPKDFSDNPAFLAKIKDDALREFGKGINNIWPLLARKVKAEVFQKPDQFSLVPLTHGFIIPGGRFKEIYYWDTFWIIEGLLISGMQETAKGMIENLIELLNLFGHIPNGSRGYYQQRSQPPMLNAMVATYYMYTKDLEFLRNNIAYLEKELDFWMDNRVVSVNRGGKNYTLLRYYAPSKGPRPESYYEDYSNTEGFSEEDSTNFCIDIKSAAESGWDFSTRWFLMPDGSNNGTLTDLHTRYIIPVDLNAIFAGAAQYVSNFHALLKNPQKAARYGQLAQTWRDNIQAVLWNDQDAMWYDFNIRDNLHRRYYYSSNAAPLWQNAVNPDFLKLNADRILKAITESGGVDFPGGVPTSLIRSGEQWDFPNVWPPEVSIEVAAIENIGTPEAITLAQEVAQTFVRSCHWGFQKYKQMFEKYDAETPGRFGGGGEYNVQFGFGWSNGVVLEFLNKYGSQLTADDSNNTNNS

Experiment [2] addresses T2, Helicoverpa armigera chitin synthase (Helicoverpa armigera).
T2 construct: the tag is not part of the printed entry; also called CHS; target CHS antigen
T2 chain: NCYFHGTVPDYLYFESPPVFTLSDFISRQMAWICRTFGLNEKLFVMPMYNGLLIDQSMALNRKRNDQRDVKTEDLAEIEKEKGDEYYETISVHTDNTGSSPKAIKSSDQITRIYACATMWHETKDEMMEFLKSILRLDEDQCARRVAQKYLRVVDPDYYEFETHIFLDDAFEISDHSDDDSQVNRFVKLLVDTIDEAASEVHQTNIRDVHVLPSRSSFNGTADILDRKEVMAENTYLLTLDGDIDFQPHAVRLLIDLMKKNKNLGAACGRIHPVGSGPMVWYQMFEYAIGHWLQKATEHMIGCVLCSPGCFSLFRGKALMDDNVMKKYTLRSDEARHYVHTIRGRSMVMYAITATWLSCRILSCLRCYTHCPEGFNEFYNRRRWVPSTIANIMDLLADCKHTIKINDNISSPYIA

Experiment [3] concerns the target T3, Helicoverpa armigera NPC1 sterol transporter (Helicoverpa armigera).
T3 construct: the tag is not part of the printed entry; also called target NPC antigen; target NPC1 antigen
T3 chain: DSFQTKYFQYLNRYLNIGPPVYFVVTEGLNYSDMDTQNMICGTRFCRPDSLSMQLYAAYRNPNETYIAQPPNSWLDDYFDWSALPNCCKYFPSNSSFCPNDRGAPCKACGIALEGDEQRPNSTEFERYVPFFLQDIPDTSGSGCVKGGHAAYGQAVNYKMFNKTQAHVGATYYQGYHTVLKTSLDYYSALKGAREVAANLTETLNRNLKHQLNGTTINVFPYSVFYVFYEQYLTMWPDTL

The target of experiment [4] is T4, Helicoverpa armigera V-ATPase subunit c (Helicoverpa armigera).
T4 construct: also called V-ATPases Subunit C; ATPase V subunit c
T4 chain: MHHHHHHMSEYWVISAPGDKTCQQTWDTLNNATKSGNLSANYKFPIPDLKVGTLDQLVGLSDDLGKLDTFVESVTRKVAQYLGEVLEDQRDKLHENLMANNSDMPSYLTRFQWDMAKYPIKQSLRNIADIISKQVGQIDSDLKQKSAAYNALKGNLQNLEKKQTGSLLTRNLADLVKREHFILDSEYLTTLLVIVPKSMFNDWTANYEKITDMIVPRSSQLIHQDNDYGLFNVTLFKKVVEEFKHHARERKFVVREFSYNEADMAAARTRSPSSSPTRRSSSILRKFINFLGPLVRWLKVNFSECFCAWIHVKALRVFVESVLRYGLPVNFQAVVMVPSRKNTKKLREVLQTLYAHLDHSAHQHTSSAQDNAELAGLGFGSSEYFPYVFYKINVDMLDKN

B1: TRH14 (VHH)
VHH: QVQLQESGGGLVQAGDSLRLSCAASGRPFSSYTMGWFRQAPGKEREFVAAISWSGGTTYYTDSVQGRFTISRDNAKNTVYLQMNRLKPEDTAVYYCATDVGRIYGGGSLYSSAFSYDYWGQGTQVTVSS
notes: Llama nanobody, His-tagged, expressed in E. coli SHuffle T7; also called anti-TRH nanobody TRH14
For B1, the binding result in experiment [1] is “binds”.

B2: CHS18 (VHH)
VHH: QVQLQESGGGLVQAGGSLRLSCTASGRTFSSYSMAWFRQASGKEREIVAAVSRFGKFKYYADSVKGRFTISRDNAKNTLYLQMNSLKPEDTAVYYCAKTDGSSWYLDYWGQGTQVTVSS
notes: Llama nanobody, His-tagged, expressed in E. coli SHuffle T7; also called anti-CHS nanobody CHS18
Take B2: the binding result in experiment [2] was “binds”.

B3: NPC04C01 (VHH)
VHH: QVQLQESGGGLVQAGGSLRLSCAASGRTFSSYVMGWFRQAPGKERELIGAINRSSTRLYYADSVKGRFSISRDNAKSTVYLQMNSLKPEDTAVYYCAADLVSILGKGYRDVDYWGQGTQVTVSS
notes: Llama nanobody, His-tagged, expressed in E. coli SHuffle T7; also called NPC4c; NPC4C
With B3, the binding result in experiment [3] is on record as “binds”.

B4: NPC04D01 (VHH)
VHH: B3 VHH with A14P, L20V, R27F, T28S, S31N
notes: Llama nanobody, His-tagged, expressed in E. coli SHuffle T7; also called NPC4d; NPC4D
As for B4, in experiment [3], the binding result is recorded as “binds”.

B5: CHS08 (VHH)
VHH: QVQLQESGGGLVQAGSSLRLSCAASGRTFRYHAMGWFRQAPGKEREFVAGISTSGGMTYYPDSVKGRFTISRDNAKNTLYLQMNSLKPGDTAVYYCAKFHGDKGYGSSWYYDYWGQGTQVTVSS
notes: Llama nanobody, His-tagged, expressed in E. coli SHuffle T7; also called CHS8; anti-CHS nanobody CHS08
Consider B5, for which, in experiment [2], the binding result is recorded as “binds”.

B6: TRH13 (VHH)
VHH: QVQLQESGGGLVQAGGSLRLTCAATVRIFSSYTMGWFRQSPGKEREFVGAITWSGGNTYYADSVKGRFTISRDNAKNTVYLQMNSLKSEDTAVYYCAADPGRSYVLSRYYDQASYDYWGQGTQVTVSS
notes: Llama nanobody, His-tagged, expressed in E. coli SHuffle T7; also called anti-TRH nanobody TRH13
Take B6: the binding result in experiment [1] is reported as “binds”.

B7: VAT0101B (VHH)
VHH: QVQLQESGGGLVQAGGSLRLSCAASGSTLSGYIMSWFRQPPGKERELVAAITYVGSTYVEDSVKGRFTISRDNAKNTVSLQMNSLKPEDTAVYYCRAREGEQLDFWGQGTQVTVSS
notes: Llama nanobody, His-tagged, expressed in E. coli SHuffle T7; also called anti-VAT nanobody VAT0101B
Regarding B7, in experiment [4], the binding result is recorded as “binds”.

B8: VAT0101G (VHH)
VHH: B7 VHH with L29F, Y58W, V59Y, E60Q
notes: Llama nanobody, His-tagged, expressed in E. coli SHuffle T7; also called VATO101G; anti-VAT nanobody VAT0101G
Turning to B8, in experiment [4], the binding result is recorded as “binds”.

B9: VAT0101E (VHH)
VHH: B7 VHH with G16D, L29F
notes: Llama nanobody, His-tagged, expressed in E. coli SHuffle T7; also called anti-VAT nanobody VAT0101E
For the molecule B9, the binding result in experiment [4] is “binds”.

B10: VAT0101C (VHH)
VHH: B7 VHH with A14S, G16D, L29F
notes: Llama nanobody, His-tagged, expressed in E. coli SHuffle T7; also called anti-VAT nanobody VAT0101C
For B10, the binding result in experiment [4] was “binds”.

B11: VAT0101D (VHH)
VHH: B7 VHH with A14P, A23V, L29F
notes: Llama nanobody, His-tagged, expressed in E. coli SHuffle T7; also called anti-VAT nanobody VAT0101D
As for B11, the binding result in experiment [4] is on record as “binds”.

B12: VAT0101F (VHH)
VHH: B7 VHH with L11T, L29F
notes: Llama nanobody, His-tagged, expressed in E. coli SHuffle T7; also called anti-VAT nanobody VAT0101F
Take B12: in experiment [4], the binding result is recorded as “binds”.

B13: NPC0901 (VHH)
VHH: QVQLQESGGGLVQAGDSLRISCKASGRTFSNYPIGWFRQAPGKEREFVAAISRSGGGTRYADSVKGRFTISRDNAKNTVYLQMNSLKRDDTAVYYCAAYFGNLGGGVGRSSDYDYWGQGTQVTVSS
notes: Llama nanobody, His-tagged, expressed in E. coli SHuffle T7; also called NPC9; anti-NPC nanobody NPC0901
On to B13, for which the binding result in experiment [3] is “binds”.

B14: CHS02A (VHH)
VHH: QVQLQESGGGLVQAGGSLRLSCAASRGTFSRYVMGWFRQGPGKEREFVAGISWSGISTYYADFVKGRFTISRDNAKNTVYLQMNSLKPEDTAVYYCAADPGRGYDYWGQGTQVTVSS
notes: Llama nanobody, His-tagged, expressed in E. coli SHuffle T7; also called CHS2a; anti-CHS nanobody CHS02A
As for B14, the binding result in experiment [2] is “binds”.

B15: CHS24 (VHH)
VHH: QVQLQESGGGWVQPGGSLRLSCTISGLSRYYAMGWFRQVPGKERESVATISLRGGRTYYADSVEGRFTISRDNAKNTMYLQMNSLKPEDTAVYYCVADTTWGAPRSRYHYWGQGTQVTVSS
notes: Llama nanobody, His-tagged, expressed in E. coli SHuffle T7; also called anti-CHS nanobody CHS24
Take B15: the binding result in experiment [2] is recorded as “binds”.

B16: NPC01C01 (VHH)
VHH: QVQLQESGGGLVQVGGSLRISCVASGRTGSYYAMGWFRQAPGKEREFVAAISWNGGMTDYADFVKGRFAISRDNAKTVSLQMNNLKPEDTALYYCTAGPARRSYSYRDGYDYWGQGTQVTVSS
notes: Llama nanobody, His-tagged, expressed in E. coli SHuffle T7; also called NPC1c; anti-NPC nanobody NPC01C01
With B16, the binding result in experiment [3] is “binds”.

B17: CHS01A (VHH)
VHH: QVQLQESGGGLVQAGGSLRLSCSASTSIASINAVGWYRQAPGKQRELVAVIVNGSTTRYADSVKGRFTISGDNAENTVPLLMSSLKPEDTAIYYCGARDLSGTYWGQGTQVTVSS
notes: Llama nanobody, His-tagged, expressed in E. coli SHuffle T7; also called CHS1a; anti-CHS nanobody CHS01A
With B17, in experiment [2], the binding result is given as “binds”.

B18: TRH1A (VHH)
VHH: QVQLQESGGGLVQAGGSLRLSCATSGRAFTNYHMGWFRQTPGKEREFVALISWSGDSTRYADSVKGRFTISRDNAKRTVALQMDSLKPEDSAVYYCASRLVGQSQYEVWGQGTQVTVSS
notes: Llama nanobody, His-tagged, expressed in E. coli SHuffle T7; also called anti-TRH nanobody TRH1A
As for B18, the binding result in experiment [1] was “binds”.

B19: CHS13 (VHH)
VHH: QVQLQESGGGLVQAGGSLRLSCTVSGGTFTTYTMAWFRQAPGKEREFVAQISWSGGITAYLDSVKGRFTISRDNAKNTVYLQMNSLKPEDTAVYYCARRGRKYEDDYWGQGTQVTVSS
notes: Llama nanobody, His-tagged, expressed in E. coli SHuffle T7; also called anti-CHS nanobody CHS13
In the case of B19, in experiment [2], the binding result is “binds”.

B20: NPC07A01 (VHH)
VHH: QVQLQESGGGLVQAGDSLRISCKASGRTFSSYPIGWFRQAPGKEREFVAAISRSGGRTYYADSVKGRLTISRDNAKNTVYLQMNSLKLEDTAVYYCAAKTTMGLPVGGTYEYDYWGQGTQVTVSS
notes: Llama nanobody, His-tagged, expressed in E. coli SHuffle T7; also called NPC7a; anti-NPC nanobody NPC07A01
As to B20, the binding result in experiment [3] was “binds”.

B21: TRH12 (VHH)
VHH: QVQLQESGGGLVQAGGSLRLSCAASTSTVSDYHMGWFRQGPGKEREFVAAISWSGDSTDYADSVKARFTISRDNAKKTMSLQMNSLKPEDTAAYYCAARRVFKATWDYWGQGTQVTVSS
notes: Llama nanobody, His-tagged, expressed in E. coli SHuffle T7; also called anti-TRH nanobody TRH12
Turning to B21, the binding result in experiment [1] is on record as “binds”.

B22: CHS22 (VHH)
VHH: QVQLQESGGGLVQAGGSLRLSCAASGGTFSGLTMGWFRQAPGKERDFVAAISWNGRFTYYKDSVKGRFAISRDNAKSTVYLQMTSLKPEDTAVYYCGADVLSGRGYRYWGQGTQVTVSS
notes: Llama nanobody, His-tagged, expressed in E. coli SHuffle T7; also called anti-CHS nanobody CHS22
For B22, the binding result in experiment [2] is on record as “binds”.

The record behind these values is patent US20220386594A1 (IBI AG INNOVATIVE BIO INSECTICIDES, published 2022).
